According to patent publication US20170313746:
“Also recorded” adds a separate entry of the source.

Legend:
[1] = target: T1, HILR-030 (cyclo-[Pro-Arg-Gly-Pro-Arg-Pro-Val-Trp-Trp-Gpa-Gpa-Trp-Trp-Gpa-Gpa-Trp-Trp])
T1 chain: PRGPRPVWWXXWWXXXW

Ac-DEVD-CHO = target: T2, Ac-DEVD-CHO
T2 chain: DEVD

B1: recombinant human caspase 3 enzyme (protein)
chain: SGISLDNSYKMDYPEMGLCIIINNKNFHKSTGMTSRSGTDVDAANLRETFRNLKYEVRNKNDLTREEIVELMRDVSKEDHSKRSSFVCVLLSHGEEGIIFGTNGPVDLKKITNFFRGDRCRSLTGKPKLFIIQACRGTELDCGIETDSGVDDDMACHKIPVEADFLYAYSTAPGYYSWRNSKDGSWFIQSLCAMLKQYADKLEFMHILTRVNRKVATEFESFSFDATFHAKKQIPCIVSMLTKELYFYH
caspase-3 activity (Apo-ONE Homogeneous Caspase-3/7 assay, cleavage of Z-DEVD-R110) [1]: inhibited the caspase-3 activity in a dose-dependent fashion | caspase-3 activity (Apo-ONE Homogeneous Caspase-3/7 assay, cleavage of Z-DEVD-R110) (Ac-DEVD-CHO): inhibited the activity of caspase-3 in a dose-dependent manner, giving rise to IC50s within the expected range; also recorded: inhibited the caspase-3 activity in a dose-dependent fashion
